We go through two substances from US20190023745A1.

For assay [1], the target named is Zika virus H/PF/2013 envelope (E) protein, on virus particles (Zika virus strain H/PF/2013). Briefly: cell-based or functional assay.
Assay [2] addresses Zika virus MR766 envelope (E) protein, on virus particles (Zika virus strain MR766) (UniProt Q32ZE1). Briefly: cell-based or functional assay.

Consider EDE1 C10 monoclonal antibody, for which, in assay [1], the PRNT50 (plaque reduction neutralization test, BHK-21 cells) amounted to 0.024 µg/mL. Moreover, in assay [2], the EC50, neutralization in Vero cells was 0.34 ng/mL. EDE1 C8 monoclonal antibody had an EC50, neutralization in Vero cells in assay [2] of 0.89 ng/mL.
